Reference: patent US20220380486A1 (COMMISSARIAT A L ENERGIE ATOMIQUE ET AUX ENERGIES …, published 2022)

Molecular target: the molecule itself
Experiment: self-assembly (homo-oligomerisation) by crystallisation on a substrate

Protein | binding result
Mutant of the C-terminal part and histidine tag, SEQ ID NO: 26 (other) MHHHHHHGAMARKELSSLEELFRHYGVRYMTLTKMVEMGFTVNTLVNMTEQELDDVIRTLVDIYRVDLLVGEKYGIKSAVRAEKRRLDELERKKGGSC | binds
Mutant with a self-reducing sequence at the C-terminal part, SEQ ID NO: 31 (C-terminal part and histidine tag modified) (other) MKHHHHHHPGAMARKELSSLEELFRHYGVRYMTLTKMVEMGFTVNTLVNMTEQELDDVIRTLVDIYRVDLLVGEKYGIKSAVRAEKRRLDELERKKGGSWAGAKRLVLRRE | binds
Mutant with a self-reducing sequence at the C-terminal part, SEQ ID NO: 29 (C-terminal part and histidine tag modified) (other) MKHHHHHHPGAMARKELSSLEELFRHYGVRYMTLTKMVEMGFTVNTLVNMTEQELDDVIRTLVDIYRVDLLVGEKYGIKSAVRAEKRRLDELERKKGGSTGTSVLIATPGV | binds
Mutant of the C-terminal part and the histidine tag, SEQ ID NO: 18 (C-terminal part removed, histidine tag modified) (other) MHHHHHHGAMARKELSSLEELFRHYGVRYMTLTKMVEMGFTVNTLVNMTEQELDDVIRTLVDIYRVDLLVGEKYGIKSAVRAEKRR | binds
Mutant of the C-terminal part and histidine tag, SEQ ID NO: 27 (other) MHHHHHHGAMARKELSSLEELFRHYGVRYMTLTKMVEMGFTVNTLVNMTEQELDDVIRTLVDIYRVDLLVGEKYGIKSAVRAEKRRLDELERKKGGSHHHHHH | binds
